In patent US20200317768A1 (published 2020) one finds Kd data, which are given here for three molecules.

Assay in all cases: SPR (Biacore), antibody captured, FcgR analyte, 25 C
Test [1] has as its target T1, human FcγRIIIaV extracellular domain, C-terminal His-tag (human, UniProt P08637 17-208).
T1 construct: also called FcgRIIIaV; not shown: His-tag added to C-terminus
On the procedure: (§1) The kinetic analysis of interactions between these antibodies and FcγR was carried out using BIACORE® T200 or BIACORE® 4000 (GE Healthcare). HBS-EP+ (GE Healthcare) was used as the running buffer, and the measurement temperature was set to 25° C. A chip produced by immobilizing Protein A. Protein A/G or mouse anti-human IgG kappa light chain (BD Biosciences) onto a Series S Sensor Chip CM4 or CM5 (GE Healthcare) by the amine-coupling method was used. […] After the measurement, the antibody captured on the chip was washed off by allowing reaction with 10 mM glycine-HCl, pH1.5 and 25 mM NaOH so that the chip was regenerated and used repeatedly. The sensorgrams obtained as measurement results were analyzed by the 1:1 Langmuir binding model using the BIACORE® Evaluation Software to calculate the binding rate constant ka (L/mol/s) and dissociation rate constant kd (l/s), and the dissociation constant KD (mol/L) was calculated from these values. […] Regarding such interactions, KD values were calculated using the following 1:1 binding model described in BIACORE® T100 Software Handbook BR1006-48 Edition AE.
(§2) The behavior of interacting molecules according to the 1:1 binding model on BIACORE® can be described by Equation 1: Req=C·R max/(KD+C)+RI, wherein, Req is a plot of steady-state binding levels to analyte concentration. C is concentration, RI is bulk refractive index contribution in the sample, and Rmax is analyte binding capacity of the surface. When this equation is rearranged, KD can be expressed as Equation 2: KD=C·Rmax/(Req−RI)−C. KD can be calculated by substituting the values of Rmax, RI, and C into Equation 1 or Equation 2. From the current measurement conditions, RI=0, C=2 μmol/L can be used.

The target in test [2] is T2, human FcγRIIb extracellular domain, C-terminal His-tag (human, UniProt P31994 43-217).
T2 construct: also called FcgRIIb (human); not shown: His-tag added to C-terminus
T2 sequence: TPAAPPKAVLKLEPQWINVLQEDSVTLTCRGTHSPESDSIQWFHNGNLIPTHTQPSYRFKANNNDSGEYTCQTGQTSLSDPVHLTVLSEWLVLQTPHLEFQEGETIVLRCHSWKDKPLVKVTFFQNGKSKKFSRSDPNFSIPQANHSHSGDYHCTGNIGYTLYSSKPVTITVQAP
On the procedure:
as §1, §2

For test [3], the target named is T3, human FcγRIIaR extracellular domain, C-terminal His-tag (human, UniProt P12318 34-217).
T3 construct: also called human FcγRIIa (type R); FcgRIIaR; not shown: His-tag added to C-terminus
T3 chain: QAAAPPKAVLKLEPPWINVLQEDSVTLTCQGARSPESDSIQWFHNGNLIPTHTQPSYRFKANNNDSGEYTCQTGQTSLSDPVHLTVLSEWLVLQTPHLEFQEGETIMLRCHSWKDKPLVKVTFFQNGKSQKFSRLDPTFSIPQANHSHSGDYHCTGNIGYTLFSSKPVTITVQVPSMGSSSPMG
The method, then:
as §1, §2

Test [4] addresses T4, cynomolgus monkey FcγRIIIaS extracellular domain, C-terminal His-tag (cynomolgus monkey, UniProt A3RFZ7 21-206 (rhesus entry)).
T4 construct: also called cyno FcγRIIIaS; cynoFcγRIIIaS; not shown: His-tag added to C-terminus
On the procedure: as §1, §2

Test [5] addresses T5, cynomolgus monkey FcγRIIa2 extracellular domain, C-terminal His-tag (cynomolgus monkey).
T5 construct: also called cyno FcγRIIa2; cynoFcgRIIa2; not shown: His-tag added to C-terminus
T5 chain: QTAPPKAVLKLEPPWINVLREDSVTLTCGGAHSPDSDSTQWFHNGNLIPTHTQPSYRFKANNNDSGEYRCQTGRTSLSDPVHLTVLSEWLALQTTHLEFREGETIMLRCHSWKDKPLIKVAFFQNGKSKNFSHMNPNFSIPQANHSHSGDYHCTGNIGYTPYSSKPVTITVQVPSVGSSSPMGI
On the procedure: as §1, §2

In test [6] the target is T6, cynomolgus monkey FcγRIIa1 extracellular domain, C-terminal His-tag (cynomolgus monkey).
T6 construct: also called cyno FcγRIIa1; cynoFcgRIIa1; not shown: His-tag added to C-terminus
T6 chain: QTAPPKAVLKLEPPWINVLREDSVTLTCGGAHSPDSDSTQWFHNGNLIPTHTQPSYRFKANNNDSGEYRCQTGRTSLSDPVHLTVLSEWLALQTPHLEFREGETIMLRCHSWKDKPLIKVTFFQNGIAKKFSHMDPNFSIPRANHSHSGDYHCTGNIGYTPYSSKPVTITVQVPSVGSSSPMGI
The method, then: as §1, §2

For test [7], the target named is T7, human FcγRIIaH extracellular domain, C-terminal His-tag (human, UniProt P12318 34-217).
T7 construct: also called human FcγRIIa (type H); FcgRIIaH; not shown: His-tag added to C-terminus
T7 sequence: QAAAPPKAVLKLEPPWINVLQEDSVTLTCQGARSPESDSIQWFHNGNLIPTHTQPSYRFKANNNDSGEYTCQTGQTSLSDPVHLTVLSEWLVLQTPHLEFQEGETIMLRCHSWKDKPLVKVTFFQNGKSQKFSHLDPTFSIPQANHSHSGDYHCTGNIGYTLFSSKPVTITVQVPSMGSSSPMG
On the procedure: as §1, §2

The target of test [8] is T8, cynomolgus monkey FcγRIIa3 extracellular domain, C-terminal His-tag (cynomolgus monkey).
T8 construct: also called cyno FcγRIIa3; cynoFcgRIIa3; not shown: His-tag added to C-terminus
T8 chain: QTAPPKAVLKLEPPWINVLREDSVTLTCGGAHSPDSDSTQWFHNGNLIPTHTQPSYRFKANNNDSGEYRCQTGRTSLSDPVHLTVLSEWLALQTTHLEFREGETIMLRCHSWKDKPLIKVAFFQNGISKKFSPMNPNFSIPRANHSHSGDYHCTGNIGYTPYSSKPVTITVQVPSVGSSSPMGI
On the procedure: as §1, §2

In test [9] the target is T9, cynomolgus monkey FcγRIIb extracellular domain, C-terminal His-tag (cynomolgus monkey).
T9 construct: also called cyno FcγRIIb; cynoFcγRIIb; not shown: His-tag added to C-terminus
T9 chain: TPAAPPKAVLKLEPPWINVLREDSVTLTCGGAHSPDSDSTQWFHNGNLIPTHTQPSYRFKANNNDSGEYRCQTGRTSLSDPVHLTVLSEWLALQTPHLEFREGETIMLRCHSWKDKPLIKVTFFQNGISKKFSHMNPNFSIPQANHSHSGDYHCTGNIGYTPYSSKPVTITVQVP
On the procedure:
as §1, §2

T1 sequence (P08637 17-208 F176V): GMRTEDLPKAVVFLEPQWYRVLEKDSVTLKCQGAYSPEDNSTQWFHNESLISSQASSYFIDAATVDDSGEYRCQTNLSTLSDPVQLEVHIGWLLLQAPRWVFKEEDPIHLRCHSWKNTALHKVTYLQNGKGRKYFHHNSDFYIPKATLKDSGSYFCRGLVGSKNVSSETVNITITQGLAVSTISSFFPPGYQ
T4 sequence (A3RFZ7 21-206): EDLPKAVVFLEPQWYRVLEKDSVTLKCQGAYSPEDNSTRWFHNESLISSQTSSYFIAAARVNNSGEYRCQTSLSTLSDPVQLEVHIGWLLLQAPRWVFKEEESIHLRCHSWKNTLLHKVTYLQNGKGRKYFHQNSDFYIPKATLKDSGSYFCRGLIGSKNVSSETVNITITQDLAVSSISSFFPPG

B1: M103205H795-MY325/M103202L889-SK1 (antibody, human IgG1, kappa)
heavy: QVTLKESGPVLVKPTETLTLTCTVSGIDLSHDDISWVRQAPGKGLEWVGIISYAGSTYYASWAKGRLTISKDTSKNQVVLTMTNMDPVDTATYYCARGVPAYSHGGDLWGQGTLVTVSSASTKGPSVFPLAPSSKSTSGGTAALGCLVKDYFPEPVTVSWNSGALTSGVHTFPAVLQSSGLYSLSSVVTVPSSSLGTQTYICNVNHKPSNTKVDKKVEPKSCDKTHTCPPCPAPELLDGPSVFLFPPKPKDTLMISRTPEVTCVVVDVSDEDPEVKFNWYVDGVEVHNAKTKPREEQYNSTYRVVSVLTVLHQDWLNGKEYKCKVSNKALPKPIEKTISKAKGQPREPQVYTLPPSREEMTKNQVSLTCLVKGFYPSDIAVEWESNGQPENNYKTTPPVLDSDGSFFLYSKLTVDKSRWQQGNVFSCSVMHEALHNHYTQKSLSLSP
light: DIVMTQSPATLSLSPGERATLSCTSSQSVYHANWLSWFQQKPGQPPKLLIYWASTLAYGVPSRFSGSGSGTDFTLTISSLQPEDAATYYCAGGYGGGRYAFGQGTKVEIKRTVAAPSVFIFPPSDEQLKSGTASVVCLLNNFYPREAKVQWKVDNALQSGNSQESVTEQDSKDSTYSLSSTLTLSKADYEKHKVYACEVTHQGLSSPVTKSFNRGEC
The Kd is the concentration at which binding is half-saturated. Turning to B1, the Kd is 8100 nM in [1]; 260 nM in test [2]; 300 nM in [3]; 4000 nM in test [4]; 4400 nM in [5]; 4000 nM in test [6]. For the same molecule, the equilibrium dissociation constant (Kd) in test [7] is 510 nM; in [8], 5800 nM; in [9], 950 nM.

B2: M103205H795-MY327/M103202L889-SK1 (antibody, human IgG1, kappa)
heavy: QVTLKESGPVLVKPTETLTLTCTVSGIDLSHDDISWVRQAPGKGLEWVGIISYAGSTYYASWAKGRLTISKDTSKNQVVLTMTNMDPVDTATYYCARGVPAYSHGGDLWGQGTLVTVSSASTKGPSVFPLAPSSKSTSGGTAALGCLVKDYFPEPVTVSWNSGALTSGVHTFPAVLQSSGLYSLSSVVTVPSSSLGTQTYICNVNHKPSNTKVDKKVEPKSCDKTHTCPPCPAPELLDGPSVFLFPPKPKDTLMISRTPEVTCVVVDVSEEDPEVKFNWYVDGVEVHNAKTKPREELYNSTYRVVSVLTVLHQDWLNGKEYKCKVSNKALPKPIEKTISKAKGQPREPQVYTLPPSREEMTKNQVSLTCLVKGFYPSDIAVEWESNGQPENNYKTTPPVLDSDGSFFLYSKLTVDKSRWQQGNVFSCSVMHEALHNHYTQKSLSLSP
light: DIVMTQSPATLSLSPGERATLSCTSSQSVYHANWLSWFQQKPGQPPKLLIYWASTLAYGVPSRFSGSGSGTDFTLTISSLQPEDAATYYCAGGYGGGRYAFGQGTKVEIKRTVAAPSVFIFPPSDEQLKSGTASVVCLLNNFYPREAKVQWKVDNALQSGNSQESVTEQDSKDSTYSLSSTLTLSKADYEKHKVYACEVTHQGLSSPVTKSFNRGEC
With B2, the Kd in test [1] was determined as 9900 nM; in [2], 170 nM; in test [3], 200 nM; in test [4] it was 4300 nM; in test [5], 4800 nM; in [6], 3400 nM. Besides, the dissociation constant (Kd) amounted to 350 nM in test [7], 5300 nM in test [8] and 1000 nM in [9].

B3: M103205H795-MY329/M103202L889-SK1 (antibody, human IgG1, kappa)
heavy: QVTLKESGPVLVKPTETLTLTCTVSGIDLSHDDISWVRQAPGKGLEWVGIISYAGSTYYASWAKGRLTISKDTSKNQVVLTMTNMDPVDTATYYCARGVPAYSHGGDLWGQGTLVTVSSASTKGPSVFPLAPSSKSTSGGTAALGCLVKDYFPEPVTVSWNSGALTSGVHTFPAVLQSSGLYSLSSVVTVPSSSLGTQTYICNVNHKPSNTKVDKKVEPKSCDKTHTCPPCPAPELLDGPSVFLFPPKPKDTLMISRTPEVTCVVVDVSDEDPEVKFNWYVDGVEVHNAKTKPREELYNSTYRVVSVLTVLHQDWLNGKEYKCKVSNKALPKPIEKTISKAKGQPREPQVYTLPPSREEMTKNQVSLTCLVKGFYPSDIAVEWESNGQPENNYKTTPPVLDSDGSFFLYSKLTVDKSRWQQGNVFSCSVMHEALHNHYTQKSLSLSP
light: DIVMTQSPATLSLSPGERATLSCTSSQSVYHANWLSWFQQKPGQPPKLLIYWASTLAYGVPSRFSGSGSGTDFTLTISSLQPEDAATYYCAGGYGGGRYAFGQGTKVEIKRTVAAPSVFIFPPSDEQLKSGTASVVCLLNNFYPREAKVQWKVDNALQSGNSQESVTEQDSKDSTYSLSSTLTLSKADYEKHKVYACEVTHQGLSSPVTKSFNRGEC
With B3, the Kd in test [1] came to 6400 nM; in test [2] it was 160 nM; in test [3], 210 nM; in [4] it was 2300 nM; in test [5] it was 3200 nM; in test [6], 1900 nM. Also, the values for the Kd in test [7], in test [8] and in test [9] were 270 nM, 3700 nM and 590 nM, respectively.
